Experimental data: patent US20120316071A1 (published 2012)

T1: rHuman Erythropoietin R/Fc Chimera, CF (R&D Systems Cat#963-ER) (human, UniProt P19235 25-250)
T1 construct: Bought recombinant protein; also called EPO R; EPO R/Fc; Fc part of the bought chimera not given
T1 sequence (looked up): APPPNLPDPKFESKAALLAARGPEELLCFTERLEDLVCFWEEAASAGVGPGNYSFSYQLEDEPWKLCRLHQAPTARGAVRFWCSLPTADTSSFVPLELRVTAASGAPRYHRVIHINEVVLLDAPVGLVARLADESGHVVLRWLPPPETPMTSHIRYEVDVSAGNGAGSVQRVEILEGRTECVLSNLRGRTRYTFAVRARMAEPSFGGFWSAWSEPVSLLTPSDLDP


Legend:
[1] = target: T2, rHuman IGF-1 sR (insulin-like growth factor-1 soluble receptor), CF (R&D Systems Cat#391-GR) (human, UniProt P08069 31-932); assay: ECL multispot (MSD), antigen spotted on plate, Fab at 0.50 (column head: Fab [µM])
T2 construct: Bought recombinant soluble receptor

[2] = target: T3, rHuman P-Cadherin/Fc Chimera, CF (R&D Systems Cat#861-PC) (human, UniProt P22223 108-654); assay: as above
T3 construct: Bought recombinant protein; Fc part of the bought chimera not given

[3] = target: T4, rHuman HGF R/c-MET/Fc Chimera, CF (R&D Systems Cat#358-MT/CF) (human, UniProt P08581 25-932); assay: as above
T4 construct: Bought recombinant protein; also called HGF R/Fc; Fc part of the bought chimera not given

[4] = target: T5, rHuman Notch-1/Fc Chimera, CF (R&D Systems Cat#3647-TK) (human, UniProt P46531 19-526); assay: as above
T5 construct: Bought recombinant chimera; Fc part of the bought chimera not given

[5] = target: T6, rHuman EGF R/Fc Chimera, CF (R&D Systems Cat#344-ER) (human, UniProt P00533 25-645); assay: as above
T6 construct: Bought recombinant protein; Fc part of the bought chimera not given

[6] = target: T7, rHuman CD44/Fc Chimera, CF (R&D Systems Cat#3660-CD) (human, UniProt P16070 21-220); assay: as above
T7 construct: Bought recombinant protein; Fc part of the bought chimera not given

[7] = target: T1, rHuman Erythropoietin R/Fc Chimera, CF …; assay: as above
[8] = target: T8, rHuman ErbB2/Fc Chimera, CF (R&D Systems Cat#1129-ER) (human, UniProt P04626 23-652); assay: as above
T8 construct: Bought recombinant protein; Fc part of the bought chimera not given

[9] = target: T9, Recombinant Human DLL4 (R&D Systems Cat#1506-D4/CF) (human, UniProt Q9NR61 27-524); assay: as above
T9 construct: Bought recombinant protein; also called delta-like protein 4; rHuman DLL4

[10] = target: T2, rHuman IGF-1 sR (insulin-like growth …); assay: ECL multispot (MSD), antigen spotted on plate, Fab at 500.00 (column head: Fab [µM])
[11] = target: T2, rHuman IGF-1 sR (insulin-like growth …); assay: ECL multispot (MSD), antigen spotted on plate, Fab at 5.00 (column head: Fab [µM])
[12] = target: T3, rHuman P-Cadherin/Fc Chimera, CF (R&D …); assay: as above
[13] = target: T4, rHuman HGF R/c-MET/Fc Chimera, CF (R&D …); assay: as above
[14] = target: T5, rHuman Notch-1/Fc Chimera, CF (R&D …); assay: as above
[15] = target: T6, rHuman EGF R/Fc Chimera, CF (R&D …); assay: as above
[16] = target: T7, rHuman CD44/Fc Chimera, CF (R&D Systems …); assay: as above
[17] = target: T1, rHuman Erythropoietin R/Fc Chimera, CF …; assay: as above
[18] = target: T8, rHuman ErbB2/Fc Chimera, CF (R&D …); assay: as above
[19] = target: T9, Recombinant Human DLL4 (R&D Systems …); assay: as above

T4 sequence (P08581 25-932, change not shown): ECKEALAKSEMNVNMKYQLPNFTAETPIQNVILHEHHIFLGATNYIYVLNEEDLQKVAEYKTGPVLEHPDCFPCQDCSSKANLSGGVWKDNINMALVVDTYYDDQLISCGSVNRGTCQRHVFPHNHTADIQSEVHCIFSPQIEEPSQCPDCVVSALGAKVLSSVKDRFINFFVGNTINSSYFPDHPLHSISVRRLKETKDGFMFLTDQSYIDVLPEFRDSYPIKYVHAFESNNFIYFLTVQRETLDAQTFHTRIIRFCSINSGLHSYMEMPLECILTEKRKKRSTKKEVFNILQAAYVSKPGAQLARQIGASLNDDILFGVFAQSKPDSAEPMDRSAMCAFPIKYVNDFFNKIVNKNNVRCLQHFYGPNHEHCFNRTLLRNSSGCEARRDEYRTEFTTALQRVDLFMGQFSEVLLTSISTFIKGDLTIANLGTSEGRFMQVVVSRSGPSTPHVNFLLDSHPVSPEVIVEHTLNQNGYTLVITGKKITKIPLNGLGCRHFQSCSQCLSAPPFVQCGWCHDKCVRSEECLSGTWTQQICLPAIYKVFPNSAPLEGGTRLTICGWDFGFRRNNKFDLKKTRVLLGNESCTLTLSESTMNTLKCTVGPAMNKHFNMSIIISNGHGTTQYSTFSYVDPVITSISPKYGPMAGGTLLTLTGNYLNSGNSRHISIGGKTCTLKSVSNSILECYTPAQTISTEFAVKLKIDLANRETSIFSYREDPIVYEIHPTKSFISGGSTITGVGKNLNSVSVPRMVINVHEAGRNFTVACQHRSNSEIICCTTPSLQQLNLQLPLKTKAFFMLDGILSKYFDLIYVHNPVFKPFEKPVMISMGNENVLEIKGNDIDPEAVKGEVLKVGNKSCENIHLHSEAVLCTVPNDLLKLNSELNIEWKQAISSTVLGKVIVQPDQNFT

Row | Binder | signal/noise ratio (ECL) [1] | signal/noise ratio (ECL) [2] | signal/noise ratio (ECL) [3] | signal/noise ratio (ECL) [4] | signal/noise ratio (ECL) [5] | signal/noise ratio (ECL) [6] | signal/noise ratio (ECL) [7] | signal/noise ratio (ECL) [8] | signal/noise ratio (ECL) [9] | signal/noise ratio (ECL) [10] | signal/noise ratio (ECL) [11] | signal/noise ratio (ECL) [12] | signal/noise ratio (ECL) [13] | signal/noise ratio (ECL) [14] | signal/noise ratio (ECL) [15] | signal/noise ratio (ECL) [16] | signal/noise ratio (ECL) [17] | signal/noise ratio (ECL) [18] | signal/noise ratio (ECL) [19]
1 | Fab VH1-46_IGHD6-6*01_IGHJ1*01 & L6_IGKJ1*01 (Fab, V domains shown, Tested as a Fab expressed in E. coli; The heavy chain came from Plasmid A (CH1 with His6 and Flag tags) and the kappa light chain from Plasmid C (kappa CL); also called Wt; wildtype) VH: QVQLVQSGAEVKKPGASVKVSCKASGYTFTSYYMHWVRQAPGQGLEWMGIINPSGGSTSYAQKFQGRVTMTRDTSTSTVYMELSSLRSEDTAVYYCAREEYSSSSAEYFQHWGQGTLVTVSS VL: not shown | 1.2 | 1.3 | 0.6 | 2 | 1.4 | 1 | 0.9 | 1 | 2.9 | 0.4 | 1.1 | 0.9 | 0.9 | 0.8 | 1 | 1.3 | 1.1 | 1 | 32.5
2 | Fab VH1-46_IGHD6-6*01_IGHJ1*01 S102A/S103P/S104F (APF) & L6_IGKJ1*01 (Fab, V domains shown, Tested as a Fab expressed in E. coli; the constant parts (CH1 with His6/Flag tags, kappa CL) come from Plasmids A and C; also called APF triple mutant; H:APF & L:wt) VH: QVQLVQSGAEVKKPGASVKVSCKASGYTFTSYYMHWVRQAPGQGLEWMGIINPSGGSTSYAQKFQGRVTMTRDTSTSTVYMELSSLRSEDTAVYYCAREEYAPFSAEYFQHWGQGTLVTVSS VL: not shown | 1.3 | 0.8 | 0.8 | 1.4 | 1.1 | 1 | 0.9 | 1 | 34.5 | 1.5 | 1.1 | 1 | 0.8 | 0.9 | 1.1 | 1.3 | 1.8 | 1.1 | 482
